This note sets out measurements from patent US20100166759A1.

The chains are these.
B1: MTAcc peptide (peptide)
peptide: AQGSICKGASDKSS
B2: MTAn peptide (peptide)
peptide: KKSSCSCSPVGSAK
B3: MTBcc peptide (peptide)
peptide: SAGSCKCKESKSTS

The experiment concerns the target MT2 protein (from Sigma) (UniProt P02795). Put plainly: SPR (BIAcoreX), MT2 immobilised on CM5 chip, peptide injected.
One may read the Kd as the free concentration of one partner at which half of the binding sites on the other are occupied at equilibrium, for simple one-to-one binding. Higher therefore signals a looser complex. For orientation: koff means the rate constant with which the complex falls apart. Low readings indicate a long-lived complex, high ones a short-lived complex. By kon is commonly meant the second-order rate constant of association. Low readings indicate slow association, high ones fast association. Regarding B1, the Kd turned out to be 89.5 nM, the koff was 0.0004 s⁻¹ and the kon worked out at 4540 M⁻¹ s⁻¹.
B2 came in with a Kd of 367 nM, a koff of 0.00574 s⁻¹ and a kon of 15700 M⁻¹ s⁻¹.
B3 came in with a Kd of 160 nM, a koff of 0.000501 s⁻¹ and a kon of 2830 M⁻¹ s⁻¹.
